Measured values as given in the nanobody polyreactivity screen of Harvey et al. (2022).

Experiment: yeast display, Sf9 membrane polyspecificity reagent, FACS + sequencing; frameworks hold sequencing errors
Method in brief: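 Nanobodies came from a synthetic yeast display library in Saccharomyces cerevisiae BJ5465, induced with galactose for 36–48 hours and stained for 1 hour at 4 °C with 10% biotinylated, detergent-solubilized Sf9 membrane reagent. Cells were enriched on streptavidin microbeads and then FACS-sorted, with low and high (top ~1%) gates set on anti-HA fluorescence for expression and streptavidin fluorescence for reagent binding. Each polyreactivity label reflects the gate a clone came from. Genes were amplified by colony PCR, sequenced by MiSeq 2 × 250 and filtered by CDR length.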

Sequence | polyreactivity (PSR sort gate)
QVQLVESGGGLVQAGGSLRLSCAASGRIFGINVMGWYRQAPGKERELVARITGRGGRTYYADSVKGRFTISRDNAKNTVYLQMNSLKPEDTAVYYCNAQPSTTGTYDYWGQGTQVTVSS | high polyreactivity
QVQLVESGGGLVQAGGSLRLSCAASGRIFGIYAMGWYRQAPGKERELVAAISYSGGSTYYADSVKGRFTISRDNAKNTVYLQMNSLNPEDTAVYYCNADYYASYYPYYSIRLDYWGQGTQVTVSS | low polyreactivity
QVQLVESGGGLVQAGGSLRLSCAASGRIFGIYAMGWYRQAPGKERELVAAISYSGGSTYYADSVKGRFTISRDNAKNTVYLQMNSMKPEDTAVYYCNADYYASYYPYYSIRLDYWGQGTQVTVSS | low polyreactivity
QVQLVESGGGLVQAGGSLRLSCAASGRIFGIYAMGWYRQAPGKERELVATITDSDDSTYYADSVKGRFTISRDNAKNTVNLQMNSLKPEDTAVYYCATAFSYGGGAYDYWGQGTKVTVSS | low polyreactivity
QVQLVESGGGLVQAGGSLRLSCAASGRIFGKYAMGWYRQAPWKERELVATISLSGVRTYYADSVKGRFTISRDNAKNTVYLQMNSLKPEDTAVYYCAAGYSSNGDYWGQGTQVTVSS | low polyreactivity
QVQLVESGGGLVQAGGSLRLSCAASGRIFGKYVMGWYRQAPGKERELVAAISSGGSTYADSVKGRFTISRDNAKNTFYLQMNCLKPEDTAVYYCNTRPRLYGYRPSQYTYDYWGQGTQVTVSS | high polyreactivity
QVQLVESGGGLVQAGGSLRLSCAASGRIFGLNAMGWYRQAPGKEREIVAAIRWRGGSTYYADSVKGLFTISRDNANNNVYLLMNSLKPEDTAVYYCAADRNLGVSRYGYWGQGTQVNVSS | high polyreactivity
QVQLVESGGGLVQAGGSLRLSCAASGRIFGLNAMGWYRQAPGKERELVAAISERDGSTYYADSVKGRFTISRDNAKNTVYLQMNSLKPEDTAVYYCAAEKPVHYVRGVHYDYWGQGTQVTVSS | low polyreactivity
QVQLVESGGGLVQAGGSLRLSCAASGRIFGLNAMGWYRQAPGKERELVAAISERDGSTYYADSVKGRFTISRDNAKNTVYLQMNSLKPEDTAVYYCAAVTPVHYVRGVHYDYWGQGTQVTVSS | low polyreactivity
QVQLVESGGGLVQAGGSLRLSCAASGRIFGLNSLGWYRQAPGNEMELVAAIDIIGGSTYYADSVKGRFTISRDNAKNTVYLQMNSLKPEDTAVYYCAAEADFWRYVEYDYWGQGTQVTVSS | low polyreactivity
QVQLVESGGGLVQAGGSLRLSCAASGRIFGLYAMGWYRQAPGKERELVAAIRSSGGSTYYADSVKGRFTISRDNAQNTVYLQMISQKPDDTAVYYCAADGDEDGEYWGQGTQVTVSS | low polyreactivity
QVQLVESGGGLVQAGGSLRLSCAASGRIFGLYAMGWYRQAPGKERELVAAITLSGDGTDYADSVKGRFTISRDNAKNTVYLQMNSLKPEDTPVYYCAKVGQYWWNMDYWGQGTQVTVSS | low polyreactivity
QVQLVESGGGLVQAGGSLRLSCAASGRIFGNNAMGWYRQAPGKERELVAAISWSARSTYADSVKGRFTISRDNAKNTVYLQMNSLKPEVTAVYYCNADSAARKGWPIYGYWGQGTKVTVSS | high polyreactivity
QVQLVESGGGLVQAGGSLRLSCAASGRIFGNYAMGWSRQAPGKERELVSAITYSTGGTSTYADSVKGLFTISRDNAKNSVYLQMNSLKPEDTAVYYCAVRRQYRRAYSFSQSRYDYWGQGTQVTVSS | high polyreactivity
QVQLVESGGGLVQAGGSLRLSCAASGRIFGNYAMGWYRQAPGKERELVAAIRWSGGRTYYADSVKGRFTISRDTAKNTVYLQMNSLKPEDTAVYYCNAYGRYSYPTFDYWGQGTQVTVSS | high polyreactivity
QVQLVESGGGLVQAGGSLRLSCAASGRIFGNYAMGWYRQAPGKESELVAAISGGGSTYYADSVKGRFTISRDNAKNTVYLQMNSLKPEDTAVYYCAARFLWSVFGRKGGYWGQGTQVTVSS | low polyreactivity

Sequence | polyreactivity (PSR sort gate)
QVQLVESGGGLVQAGGSLRLSCAASGRIFGPNAMGWYRPAPGKERELVAAISTRDGSTSYADSVKGRFTISRDNAKNTVYLQMNSLKPEDTAVYYCAKRWPYWYRVTQYDNVDYWGQGTQVTVSS | low polyreactivity
QVQLVESGGGLVQAGGSLRLSCAASGRIFGPYAMGWYRQAPGKERELVATITWSGVSTYYADSVKGRFTISRDNAKNTVYLQMNSLKPEDTAVYYCNAKRTGQWFLHVPVYYWGQGTQVTVSS | low polyreactivity
QVQLVESGGGLVQAGGSLRLSCAASGRIFGPYAMGWYRQAPGTERELVAAIRASSSSTYYADSVKGRFTISRDNAKNTVYLQMNSLKPEDTAVYYCAADWYYGYAWKYGYWGQGTQVTVSS | low polyreactivity
QVQLVESGGGLVQAGGSLRLSCAASGRIFGPYTKGWYRQAPGKERELVATISYSGSTTYYADSVKGRFTISRDNAKNTVYLQMNSLKPEDTAVYYCAAYYWARRDWGQGTQVTVSS | high polyreactivity
QVQLVESGGGLVQAGGSLRLSCAASGRIFGPYTMGWYRPAPGKEREFVAAISRSGDSTYYADSVKGRFTISRDNAKNTVYLHMNSLKPADTAVYYCAAKYGTRLTAYYYWGQGTQVTVSS | high polyreactivity
QVQLVESGGGLVQAGGSLRLSCAASGRIFGQNAMGWYRQAPGKERELVAVITSRGTRTYYADSVKGRFTISRDNAKNTVYLQMNSLKPEDTAVYYCAADVYSDNYKTWPYDYWGQGTQVTVSS | low polyreactivity
QVQLVESGGGLVQAGGSLRLSCAASGRIFGQNTMGWYRQAPGKERELVAAITWNGGRTYYADSVKGRFTISRDNAKNTVYLQMNSLKPEDTAVYYCAARYSTYPWYNYWGQGTQVTVSS | high polyreactivity
QVQLVESGGGLVQAGGSLRLSCAASGRIFGQNVMGWYIQAPGKERELVAAITSAGRTYYADSVKGRFTISRDIAKNTVYLQMKSLKPEDTAVYYCAAYVRRGFDWGQGTQVTVSS | high polyreactivity
QVQLVESGGGLVQAGGSLRLSCAASGRIFGRNAMGWYRQAPGKERELVAAISKSGTSTYYADSVKGRFTISRDNAKNTVYLQMNSLKPEDTAVYYCAAALPGYGDYYYWGQGTQVTVSS | high polyreactivity
QVQLVESGGGLVQAGGSLRLSCAASGRIFGRNAMGWYRQAPGKERELVAAISRSGGSTYYADSVKGRFTISRDNAKNTVYLQMNSLKPEFTAVYYCAADVYRTWYWWFDYWGHGTQVTVSS | high polyreactivity
QVQLVESGGGLVQAGGSLRLSCAASGRIFGRNAMGWYRQAPGKERELVAAISWRGGNTYYADSVKGRFTISRDNAKNTVYLQMNSLKPEDTAVYYCNTVQYRNEMGYWGQGTQVTVSS | high polyreactivity
QVQLVESGGGLVQAGGSLRLSCAASGRIFGRNAMGWYRQAPGKERELVASITWTGGSTYYADSVKGRFTISRDNAKNTVYLQMNSLKPEDTAVYYCAAETWYGSSWWDAGEYYYWGQGTQVTVSS | high polyreactivity
QVQLVESGGGLVQAGGSLRLSCAASGRIFGRYAKGWYRQAPGKEMELVAAISRSGGSTYYADSVKGRFTISRDNAKNTVYLQMNSLKPEDTAVYDCAAVPGISVGRQPGYDSDYWGQGTQVTVSS | low polyreactivity
QVQLVESGGGLVQAGGSLRLSCAASGRIFGRYAMGWYRQAPGKDRELVAAITYSGGSTYYADSVKGRFTISRDNAKNTVYFQMNSLKPEDTALYYCNAVAYRSRGPHFNYWGQGTQVTVST | high polyreactivity
QVQLVESGGGLVQAGGSLRLSCAASGRIFGRYAMGWYRQAPGKERELVAAISRRGGTTYYADSVKGRFTISRDNAKNTVYLQMNSLKPEDTAVYYCNADTYGYGFDYWGQGTQVTVSS | high polyreactivity
